In patent US20240352102A1 (UNITED STATES GOVERNMENT AS REPRESENTED BY THE DEPARTMENT …, published 2024):

How the values were obtained:
[1] = target: T1, recombinant human tau incubated with poly(A) RNA (human, UniProt P10636-7 1-412, limits assumed); experiment: dot blot, 20 ng tau, 8 replicates, reference heparin incubated tau
T1 construct: Oligomeric complex with RNA; also called tau/RNA complexes; TRCs
Description: To control for other polyanions inducing the TRC35+ tau conformation, recombinant protein was purified from E. coli overexpressing human tau. Twenty ng of purified tau proteins was incubated with poly(A) RNA or Heparin as shown in representative blots above. In total, 8 replicate samples were dot blotted with mAb TRC35 (FIG. 11A) and SP70 total tau mAb (FIG. 11B) as previously described for FIG. 1.

[2] = target: T2, Peptide_083; experiment: peptide microarray
T2 peptide: DNITHVPGGGNKKIE

[3] = target: T3, Peptide_080; experiment: peptide microarray
T3 peptide: FKDRVQSKIGSLDNI

[4] = target: T4, Peptide_089; experiment: peptide microarray
T4 peptide: AKAKTDHGAEIVYKS

[5] = target: T5, Peptide_079; experiment: peptide microarray
T5 peptide: EKLDFKDRVQSKIGS

[6] = target: T6, Peptide_081; experiment: peptide microarray
T6 peptide: VQSKIGSLDNITHVP

[7] = target: T7, Peptide_091; experiment: peptide microarray
T7 peptide: AEIVYKSPVVSGDTS

[8] = target: T8, Peptide_097; experiment: peptide microarray
T8 peptide: TGSIDMVDSPQLATL

[9] = target: T9, Peptide_093; experiment: peptide microarray
T9 peptide: VVSGDTSPRHLSNVS

[10] = target: T10, Peptide_005; experiment: peptide microarray
T10 peptide: TYGLGDRKDQGGYTM

[11] = target: T11, Peptide_018; experiment: peptide microarray
T11 peptide: TPTAEAEEAGIGDTP

[12] = target: T12, Peptide_026; experiment: peptide microarray
T12 peptide: KSKDGTGSDDKKAKG

[13] = target: T13, Peptide_010; experiment: peptide microarray
T13 peptide: GDTDAGLKESPLQTP

[14] = target: T14, Peptide_014; experiment: peptide microarray
T14 peptide: EDGSEEPGSETSDAK

[15] = target: T15, Peptide_036; experiment: peptide microarray
T15 peptide: RIPAKTPPAPKTPPS

[16] = target: T16, Peptide_021; experiment: peptide microarray
T16 peptide: DTPSLEDEAAGHVTQ

[17] = target: T17, Peptide_031; experiment: peptide microarray
T17 peptide: KIATPRGAAPPGQKG

[18] = target: T18, Peptide_006; experiment: peptide microarray
T18 peptide: GDRKDQGGYTMHQDQ

[19] = target: T19, Peptide_023; experiment: peptide microarray
T19 peptide: AAGHVTQARMVSKSK

[20] = target: T20, Peptide_004; experiment: peptide microarray
T20 peptide: DHAGTYGLGDRKDQG

[21] = target: T21, Peptide_027; experiment: peptide microarray
T21 peptide: GTGSDDKKAKGADGK

[22] = target: T22, Peptide_025; experiment: peptide microarray
T22 peptide: RMVSKSKDGTGSDDK

[23] = target: T23, Peptide_011; experiment: peptide microarray
T23 peptide: AGLKESPLQTPTEDG

[24] = target: T24, Peptide_032; experiment: peptide microarray
T24 peptide: PRGAAPPGQKGQANA

[25] = target: T25, Peptide_020; experiment: peptide microarray
T25 peptide: AGIGDTPSLEDEAAG

[26] = target: T26, Peptide_029; experiment: peptide microarray
T26 peptide: AKGADGKTKIATPRG

[27] = target: T27, Peptide_003; experiment: peptide microarray
T27 peptide: EVMEDHAGTYGLGDR

[28] = target: T28, Peptide_019; experiment: peptide microarray
T28 peptide: EAEEAGIGDTPSLED

[29] = target: T29, Peptide_033; experiment: peptide microarray
T29 peptide: APPGQKGQANATRIP

[30] = target: T30, Peptide_007; experiment: peptide microarray
T30 peptide: DQGGYTMHQDQEGDT

[31] = target: T31, Peptide_022; experiment: peptide microarray
T31 peptide: LEDEAAGHVTQARMV

[32] = target: T32, Peptide_024; experiment: peptide microarray
T32 peptide: VTQARMVSKSKDGTG

[33] = target: T33, Peptide_009; experiment: peptide microarray
T33 peptide: QDQEGDTDAGLKESP

[34] = target: T34, Peptide_030; experiment: peptide microarray
T34 peptide: DGKTKIATPRGAAPP

[35] = target: T35, Peptide_028; experiment: peptide microarray
T35 peptide: DDKKAKGADGKTKIA

[36] = target: T36, Peptide_012; experiment: peptide microarray
T36 peptide: ESPLQTPTEDGSEEP

[37] = target: T37, Peptide_015; experiment: peptide microarray
T37 peptide: EEPGSETSDAKSTPT

[38] = target: T38, Peptide_013; experiment: peptide microarray
T38 peptide: QTPTEDGSEEPGSET

[39] = target: T39, Peptide_016; experiment: peptide microarray
T39 peptide: SETSDAKSTPTAEAE

[40] = target: T40, Peptide_008; experiment: peptide microarray
T40 peptide: YTMHQDQEGDTDAGL

[41] = target: T41, Peptide_001; experiment: peptide microarray
T41 peptide: MAEPRQEFEVMEDHA

[42] = target: T42, Peptide_002; experiment: peptide microarray
T42 peptide: RQEFEVMEDHAGTYG

[43] = target: T43, Peptide_017; experiment: peptide microarray
T43 peptide: DAKSTPTAEAEEAGI

T1 sequence (P10636 other isoform, or with tags, fused parts or gaps limits assumed): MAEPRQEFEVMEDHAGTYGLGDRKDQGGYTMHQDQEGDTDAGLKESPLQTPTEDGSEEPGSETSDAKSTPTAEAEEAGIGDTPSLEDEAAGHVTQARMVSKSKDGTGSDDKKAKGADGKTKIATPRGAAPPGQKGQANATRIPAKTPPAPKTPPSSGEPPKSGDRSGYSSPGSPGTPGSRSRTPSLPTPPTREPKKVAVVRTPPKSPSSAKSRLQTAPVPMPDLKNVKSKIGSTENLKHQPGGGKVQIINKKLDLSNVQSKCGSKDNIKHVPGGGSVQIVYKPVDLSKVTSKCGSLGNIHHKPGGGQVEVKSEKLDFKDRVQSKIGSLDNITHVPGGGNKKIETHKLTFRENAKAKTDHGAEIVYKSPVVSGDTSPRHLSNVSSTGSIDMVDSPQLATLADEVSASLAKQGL

B1: mAb TRC35 (antibody, V domains shown)
VH: QVQLQQPGTELVKPGASVKLSCKASGYTFTSYWLQWVKQRPGQGLEWIGEIDPSDSYTNYNQKFKGKATLTVDTSSSTAYMQLSSLTSEDSAVYYCATLTGSWGQGTTLAVSS
VL: DVLLTQTPLSLPVSLGDQASISCRASQSIVDSNGNTFLEWYLQKSGQSPKVLIYKVSNRFSGVPDRFSGRGSGTDFTLKISRVEAEDLGVYYCFQGSHVPYTFGGGTKLEIK
notes: Mouse hybridoma monoclonal antibody raised in tau knockout mice against tau/poly(A) RNA complexes; IgG1 isotype, kappa light chain; also called TRC35 monoclonal antibody; hybridoma clone #35
For B1, the “fold TRC35 signal normalized to SP70, relative to heparin” value [1] was roughly 2 fold, the binding result [2] was “no binding (tested: 1 ug/ml)” and the binding result [3] was “no binding (tested: 1 ug/ml)”. B1: no binding (tested: 1 ug/ml) [4]; no binding (tested: 1 ug/ml) [5]; no binding (tested: 1 ug/ml) [6]. B1: no binding (tested: 1 ug/ml) [7]; no binding (tested: 1 ug/ml) [8]; no binding (tested: 1 ug/ml) [9]. B1: no binding (tested: 1 ug/ml) [10]; no binding (tested: 1 ug/ml) [11]; no binding (tested: 1 ug/ml) [12]. B1: no binding (tested: 1 ug/ml) [13]; no binding (tested: 1 ug/ml) [14]; no binding (tested: 1 ug/ml) [15]. B1: no binding (tested: 1 ug/ml) [16]; no binding (tested: 1 ug/ml) [17]; no binding (tested: 1 ug/ml) [18]. B1: no binding (tested: 1 ug/ml) [19]; no binding (tested: 1 ug/ml) [20]; no binding (tested: 1 ug/ml) [21]. B1: no binding (tested: 1 ug/ml) [22]; no binding (tested: 1 ug/ml) [23]; no binding (tested: 1 ug/ml) [24]. B1: no binding (tested: 1 ug/ml) [25]; no binding (tested: 1 ug/ml) [26]; no binding (tested: 1 ug/ml) [27]. B1: no binding (tested: 1 ug/ml) [28]; no binding (tested: 1 ug/ml) [29]; no binding (tested: 1 ug/ml) [30]. B1: no binding (tested: 1 ug/ml) [31]; no binding (tested: 1 ug/ml) [32]; no binding (tested: 1 ug/ml) [33]. B1: no binding (tested: 1 ug/ml) [34]; no binding (tested: 1 ug/ml) [35]; no binding (tested: 1 ug/ml) [36]. B1: no binding (tested: 1 ug/ml) [37]; no binding (tested: 1 ug/ml) [38]; no binding (tested: 1 ug/ml) [39]. B1: no binding (tested: 1 ug/ml) [40]; no binding (tested: 1 ug/ml) [41]; no binding (tested: 1 ug/ml) [42]. B1: no binding (tested: 1 ug/ml) [43].
